# Laboratory results as given in patent US20230303711A1.
# B1: Antibody 17 (antibody, human IgG1, kappa, V domains shown)
# VH: QVQLQESGPGLVKPSETLSLTCTVSGGSLDNYYWSWIRQPPGKGLEWIGYIYYSGNTNYNPSLKSRVTISVDTSKNQFSLRLRSVTAADTAVYYCARGGRFLERYWGQGTLVTVSS
# VL: DIQMTQSPSSVSASVGDRVTISCRANQAIGTWLAWYQQKPGKAPKLLIYAASTLQSGVPSRFSGSGSGTEFTLTISSLQAEDVAVYYCQQYYTTPLTFGGGTKLEIKR
# Target: Fc-tagged human CD47-ECD protein (CD47-Fc) (human)
# Assay: ELISA on coated human CD47-Fc; row printed as Affinity (µg/mL)
# Fc-tagged human CD47-ECD protein (CD47-Fc) (human), sequence (chain, as listed by the source limits assumed): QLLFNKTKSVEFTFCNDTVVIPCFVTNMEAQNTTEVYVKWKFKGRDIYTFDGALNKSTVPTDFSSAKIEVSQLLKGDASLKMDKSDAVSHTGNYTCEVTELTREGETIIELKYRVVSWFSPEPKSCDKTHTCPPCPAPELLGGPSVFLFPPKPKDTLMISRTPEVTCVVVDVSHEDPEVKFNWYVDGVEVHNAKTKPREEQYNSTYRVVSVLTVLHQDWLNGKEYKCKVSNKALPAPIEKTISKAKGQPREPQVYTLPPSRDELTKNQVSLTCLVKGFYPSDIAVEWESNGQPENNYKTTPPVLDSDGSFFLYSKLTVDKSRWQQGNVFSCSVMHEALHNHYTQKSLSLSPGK
binder,measurement,value
B1,EC50,0.088 µg/mL
